Laboratory results reported in the DeepSol protein solubility set.

Test: soluble on expression in E. coli; label from the status in PepcDB or PDB records

Sequence | soluble on expression in E. coli
MSELRKLELERKKQKLAELKSQRKREEDARVQNLLRSTNENGTTQNGTSRQTLSSNEVEDILRQVGISTEPTVREESPAPPPGSHSDNHVDPSASHPRISNLLSVDLEFSSVQTACTDNKDSAIYSKGTQTDDERISVGEFSLGSQEFDYDDDMIMPMDHGQFRGRAHSHDQDSPLPYNEEIAKLLGQTKQGDKGLTRQETEEKKTQTVQIVPPLSDEEKYRLTLDPEFLDSFNRSCKVISRALNEEIDICINYTKDPYEKAIASDDLLHLAQVYQDETWTAKRLVTGMAFSEHYPDLLAVSYGPCDIPNEPPGVIVVWNTKSKRMTAEFIVYCQSEIQSVAFARFHAHLLLAGCESGQICVWDNRLTSRKLPINRSPLTTQAHTYTVSCLAVVGTKNAHNFVSLSRDGRICSWNVDNLTQPVDGKELMTKEGKAASATRMSFPIGEMQTFVVGTDTGEILAASRNGADPAVIKTDVCYKGHSGTLTGIEFHRASGVVDFSHLFISSSHDWTVKLWSTKDANLKFSFESHPDLVLDVAWSPVHPAVFASIDADGNIFVWNLNEDVEGPVARLRAGAEGESVYMNRLIWSPDGKHVFVGDDEGRVHMYDVRESLYVLKSEEWNRFARVLSDMKQSNEEAENYNM | not soluble
MSELSQLSPQPLWDIFAKICSIPHPSYHEEQLAEYIVGWAKEKGFHVERDQVGNILIRQPATAGMENRKPVVLQAHLDMVPQKNNDTVHDFTKDPIQPYIDGEWVKARGTTLGADNGIGMASALAVLADENVVHGPLEVLLTMTEEAGMDGAFGLQSNWLQADILINTDSEEEGEIYMGCAGGIDFTSNLHLDREAVPAGFETFKLTLKGLKGGHSGGEIHVGLGNANKLLVRFLAGHAEELDLRLIDFNGGTLRNAIPREAFATIAVAADKVDALKSLVNTYQEILKNELAEKEKNLALLLDSVANDKAALIAKSRDTFIRLLNATPNGVIRNSDVAKGVVETSLNVGVVTMTDNNVEIHCLIRSLIDSGKDYVVSMLDSLGKLAGAKTEAKGAYPGWQPDANSPVMHLVRETYQRLFNKTPNIQIIHAGLECGLFKKPYPEMDMVSIGPTITGPHSPDEQVHIESVGHYWTLLTELLKEIPAK | not soluble
MSEMNAVYNVKQYILNLIMQNKLEYGDQLPSNLSIARELNVKTDDVYEAIQALITEQVIKDNFEEGTSVKSLPPFFYPLNELISIGQMIKNAGFECGTEYLNFDEQPATMLDANLLSVEEGYPVTIIERLRTADGEPVVYCLDKIAKKELTCTEYQMSNGSILSAIKEQSNHNICYADTEIEAVNYEPRISEVLNASPHEGLILLKITHYNELDEPILYSLNYMKNSLVQFKITRKI | not soluble
MSEQDATLDEFVEEGESESTDSANIDPNTLDQEQFGPFTLSTPGEWTAKRLGDIKQLITRGKQPTYDDDGVPVINQECIYWDGWHFENLRYLEEDVAEGWKEKYFPESGDVIVNSTGQGTLGRAQVYPGDQRRAIDSHVTLLRTDEQLCPHFHRYFFESHLGQALLYSMCVNGSTGQIELSKTRLDLLPTPLPPLEEQRKIASVLYNVDQAIQKTEAVIEKIERLKQGLLDDLFTKGLSESNSLRPSPEDHPGLYKKERRQTIPSEWNVESLQNLCVENITYGIVQPGPHVEDGVPYINTEDMTDGDIPTEGLSRTSPEIAEKYSRSQIHAEELVVTIRATIGAVDQVPPELEGANLTRGTARVVPGDKVDNTFLLWAIRSNNFQSELDARVKGTTFDEINLDQLGKIPVPHPDIDEQDRIVDELSTIEERMENEESYLEQLKRLKQGLMQDLLSGEVRTTDVDIPVLDAVAQHG | soluble
MSFIKTFSGKHFYYDKINKDDIVINDIAVSLSNICRFAGHLSHFYSVAQHAVLCSQLVPQEFAFEALMHDATEAYCQDIPAPLKRLLPDYKRMEEKIDAVIREKYGLPPVMSTPVKYADLIMLATERRDLGLDDGSFWPVLEGIPATEMFNVIPLAPGHAYGMFMERFNDLSELRKCA | soluble
MSFNRISAAEAASLIKHGYNIGLSGFTPAGTAKAVTAELAKIAEAEHAKGNPFQVGIFTGASTGESCDGVMSRAKAIRYRAPYTTNSDFRKAVNNGEIAYNDIHLSQMAQEVRYGFMGKVNVAIIEACEVTPDGKIYLTAAGGISPTICRLADQIIVELNAAHSKSCMGLHDVYEPLDPPYRREIPIYKPSDRIGLPYIQVDPKKIVGVVETNWPDEARSFADADPLTDKIGQNVADFLAADMKRGIIPSTFLPLQSGVGNIANAVLGALGRDKTIPAFEMYTEVIQNSVIGLIREGRIKFGSACSLTVTNDCLEGIYNDMDFFRDKLVLRPSEISNNPEVVRRLGIISINTAIEVDLYGNVNSTHIGGTKMMNGIGGSGDFTRNAYISIFTCPSVAKEGKISAIVPMVSHLDHSEHSVNIIITEQGVADLRGKSPKERAQAIIENCAHPDYKQLLWDYLKLAGGRAQTPHAIQAALGMHAELAKSGDMKNTNWAEYARLEHHHHHH | not soluble
MSFTEDQEKIALEILSKDKHEFYEILKVDRKATDSEIKKAYRKLAIKLHPDKNSHPKAGEAFKVINRAFEVLSNEEKRSIYDRIGRDPDDRQMPSRGAASGFRGSAGGSPMGGGFEDMFFNSRFGGQRAGPPEDIFDFLFNAGGSPFGASPFGPSASTFSFGGPGGFRVYTNNRGGSPFMRQQPRSRQQQQQAEENAVNSQLKN | not soluble
MSGALKENSGKPSEVEYTHFKDLQALEMERGRLYETIVVTWDDSMVGNAAPIGVLCTGDDTVTLYLYQGTRTVENVLNNGRFTVNVTLDPLIFTDSTLGDLEEDMFSHYRDFLHLRGADAFFTAEVVSVKKLVKRDRFGESELHVVKARAGDVMRAESFRMALNRGIYAVIESLIAYTRAEFSDPLVLRERIAEMNRVARKVGGPREKEAMRRIIQALESKIS | not soluble
MSGDDDIPEGLEAINLKMNATTDDSLESTRRMLALCEESKEAGIKTLVMLDDQGEQLERCEGALDTINQDMKEAEDHLKGMEKCCGLCVLPWNKTDDFEKTEFAKAWKKDDDGGVISDQPRITVGDSSMGPQGGYITKITNDAREDEMDENVQQVSTMVGNLRNMAIDMSTEVSNQNRQLDRIHDKAQSNEVRVESANKRAKNLITK | not soluble
MSGDGDSSTTSSAGDGSTSKDKIPAFSEIRVIEVNRDNFAKIWPYLLVCIKSADFTAIDLELSGLGGKGLRSRDIAERYQAIRDAAHTRSILSVGIATMKLTHKSEKRRALRYETQVFNILTFSEKPFTIEPSALQFLAKHSFDFNRLIQSGVRFQGANCPLKTLFRELLGSSATFCLHNGFIDLAFIYKQLYDIDLPDTLDGFVNNLSDMFPDNYLPVADSKYLAEYQTRMTASFLEYVFRRTQGDNEIERQNNRYHIEICFPSSEKSIKALKNATESVDVRLPEGFPDHAIPIDLHIHVCKYFAYHGFCHARNTEKGCKLLHDVDTAIDLQRIKENKKAFKRKRRYNNVIAESVAEKTGTDEEAWKNAKFEQNLLTRDFRELKRNVVTGLHRAGVDAFMTAFAVIYQQRRTLMADNSVDLKFLNRVPLSAKDKPLHLRHRPVPVPQSEQIDAHLEAMVEINKQRDYIRMNAAATVIKSVQKEDTPCED | not soluble
MSGIPSQGVASGMREAARALLAVLEPEQVRELRAGPDRLDTPELREWTYLPGPRPGLSTEGLDGRQREVVDALLTTAHSAAGAELVRGAIEVERHPRARAGHPGPDRYWVRLLGDPGGDEPWGWRLNGHHLAVHVLVTAAGVRVTPHFVGAEPARTGNGPRPGLRPLGPEEDLARELITSLGGTARASALFAATPPDDILTRADPFADPGLLPEGLRYDRLAPGQQRLLERLVGRYLDRAPEAYARECWSDAVRRGLGSLSFAWAGGLAPGDRHYYCVRAPDFLIEYDNTQDDGNHAHSVWRHVRHDWGTDLLRGHYTEQHFLEHHHHHH | not soluble
MSGPAHLPYGGIPTFARAPLVQPDGDWQADVAALGVPFDIALGFRPGARFAPRALREASLRSVPPFTGLDGKTRLQGVTFADAGDVILPSLEPQLAHDRITEAARQVRGRCRVPVFLGGDHSVSYPLLRAFADVPDLHVVQLDAHLDFTDTRNDTKWSNSSPFRRACEALPNLVHITTVGLRGLRFDPEAVAAARARGHTIIPMDDVTADLAGVLAQLPRGQNVYFSVDVDGFDPAVIPGTSSPEPDGLTYAQGMKILAAAAANNTVVGLDLVELAPNLDPTGRSELLMARLVMETLCEVFDHVL | soluble
MSGTASKGSSSDSASEKTEMRTYKSPKGNVNIPAHPKRIVTDFYAGELLSVGANVVGSGSWSFDNPFLKSKLKNVKDVGDPISVEKVMELQPDLIVVMNEENVDKLKKIAPTVVIPYNTAKNVEDTVSMFGDIAGAKDQAKSFMADFNKKAEAAKKKIAGVIDKDATFGIYENTDKGEFWVFNDNGGRGGQAVYNALGLKAPEKIEQDVIKKGEMKQLSQEVIPEYAADYMFITDYNPKGESKTLDKLENSSIWKNLDAVKHNRVFINDFDSFYPYDPISVSKQVDIITDMLIKRAEENLEHHHHHH | soluble
MSGVWVFKNGVIRLVENPNQSGSDTQNRRKVMVYLPTGEVVSSYSTLEQILQSLGWERYFGGGDTDLLQFHKRSSIDLISLPRDFTKFNSVYMYDIVVKNPNYFHVRDSH | not soluble
MSHHPDLSVSLDQLLLRKEVRVRQQGEWLKRHSLPLVSFTVNMPGAVKLNAASQTVMDAGMRAIQELCQKTGWRQVACQLLVEKTGPEAFVVIQAPSASMLKKAMMKIEREHPLGRLMDLDVIDVDGHIISRQGAQLPRRRCLLCERDAVICARSRRHSVEALLAKIEEMTHDYSCCA | soluble
MSHQIRSKKTLWELVGRNKDALRDFLKEHRGTILLRDIASEHKVVYKPIFKRYNGDPDLIEDNSNDVEHWYDYHLERYWNTPELKKEFYKKFGPVDLNQPIILAKPLRQHNRGDLVHLLPQFVVPVYN | soluble
MSHSTYSLSFVASPSEEAQTALKELKAVYSDTPFEEADVIVALGGDGFMLQILNETMNSGKRVYGMNRGSVGFLMNDFRVEGLIQRIAVASGNDFHPLRMTTTDSDGDEFTALAMNEVSLFRQSHQAAKLRVEVDGKVRLEELICDGMMVATPAGSTAYNFSAHGPILPLESPLLALTPVSAFRPRRWRGALLPNKVTVDIHVLERDKRPVNAVADHTEVKSVRHVRIAQSQDRTAKILSDPDRSWSDRVLAEQFNNLEHHHHHH | not soluble
MSHVDDGFRSLTLKRFPQTDDVNPLLAWEAADEYLLQQLDETEIRGPVLILNDTFGALSCALAEHSPYSIGDSYLSELGTRENLRHNGIAESSVTFLDSTADYPQAPGVVLIKVPKTLALLEQQLRALRKVVTAQTRIIAGAKARDIHTSTLELFEKVLGPTTTTLAWKKARLINCTFSHPQLADAPQTLSWKLEDTGWTIHNHANVFSRTGLDIGARFFMQHLPENLDGEIVDLGCGNGVIGLSLLAKNPQANVVFVDESPMAVDSSRLNVETNLPEAFERCEFMINNALSGVEPFRFNAVFCNPPFHQKHALTDNIAWEMFHHARRCLKINGELYIVANRHLDYFHKLKKIFGNCATIATNNKFVILKAVKQGRRR | not soluble
MSIEPTQVSREAELGAFLRTHRERLTPSDVGLPPGRRRRTPGLRREEVAQLSGLSATWITWLEQGRPVAMSVRALGSLAEALRLSRAERAYLFALAGKPEPRQDAEPAVPVALLASVQAISGPAYLLDRQWTARAWNAAAADLFVGWLDAASGERNLLRAMFLPTALQALVEDWPHRAARLVAEFRVHSLRHAEDPPTRALIERLMEDSPAFAAAWRSQDVDERQGGRRGFHHPMRGLVYFEQLTLVPPAAPGMMLVMLLPETP | soluble
MSIIFNQRIEIIRAGEKRSVYSSDVMEDWDNPVVLPVEVPVSIQPVSSTESDATANRSYVTSRFRLFSPPGIDIPQLKAKDRVRIGLLVLDVVGDPARWPHPLKPATVHHVEADLEVHRG | not soluble
